This note sets out measurements from PMC7979752.

In assay [1] the target is SmhB (S. marcescens MSU-97). The experiment in a line: crystal structure; SmhB pore form, crystallised in 0.2 M calcium chloride, 40% MPD, 16 °C; space group C2, 6.98 Å.
Assay [2] concerns the target SmhC (S. marcescens MSU-97).

Consider SmhB (natural protein), for which the stoichiometry N in assay [1] was determined as 10. In addition, in assay [2], the percentage lysis of horse erythrocytes with equimolar SmhB and SmhC, 2 h is 5%.

The stoichiometry N is the number of molecules, sites or subunits per partner or assembly.
